The values below come from article PMC2817709, “A Novel High-Affinity Sucrose Transporter Is Required for Virulence of the Plant Pathogen Ustilago maydis” (PLoS Biology, 2010).

By Km is commonly meant the substrate concentration at which the rate is half of its maximum.

Data set [1] relates to OC[C@H]1O[C@@](CO)(O[C@H]2O[C@H](CO)[C@@H](O)[C@H](O)[C@H]2O)[C@@H](O)[C@@H]1O. As to the kind of experiment: cells, lysate or membranes. The settings on record: pH 5.0, 50 mM Na-phosphate, 29°C, H+ symport, labelled compound.
Another data set addresses T1, Srt1 (Mycosarcoma maydis, UniProt A0A0D1E1N5).
T1 construct: gene UMAG_02374; full-length ORF, 546 residues, 12 predicted TMDs, untagged in vector NEV-E; expressed in invertase-deficient S. cerevisiae SEY2102
Briefly: competition with […]-sucrose uptake in srt1-expressing S. cerevisiae. The format is cell-based. The settings on record: 10 mM competitor (100-fold excess) against 0.1 mM 14C-sucrose; pH 5.0, 29°C.

T1 sequence (A0A0D1E1N5 entry or part of it): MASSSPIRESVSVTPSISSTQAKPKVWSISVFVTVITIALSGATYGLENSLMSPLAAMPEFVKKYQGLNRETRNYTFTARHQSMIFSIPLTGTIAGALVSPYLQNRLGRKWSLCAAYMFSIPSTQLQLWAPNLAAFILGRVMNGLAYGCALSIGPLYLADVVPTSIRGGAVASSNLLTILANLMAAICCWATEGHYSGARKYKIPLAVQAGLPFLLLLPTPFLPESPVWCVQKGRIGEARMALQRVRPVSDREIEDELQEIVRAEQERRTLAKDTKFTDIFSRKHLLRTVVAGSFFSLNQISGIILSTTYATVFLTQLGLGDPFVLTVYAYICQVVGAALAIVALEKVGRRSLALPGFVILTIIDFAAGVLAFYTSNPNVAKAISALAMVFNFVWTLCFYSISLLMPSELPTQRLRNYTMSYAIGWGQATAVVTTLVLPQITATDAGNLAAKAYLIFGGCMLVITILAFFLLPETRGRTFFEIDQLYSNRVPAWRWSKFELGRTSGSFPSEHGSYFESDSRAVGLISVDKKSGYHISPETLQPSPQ

For Srt1 (Mycosarcoma maydis), the Km in data set [1] turned out to be 26 ± 4.3 µM. As to `OC[C@H]1O[C@H](OC[C@H]2O[C@H](O[C@]3(CO)O[C@H](CO)[C@@H](O)[C@@H]3O)[C@H](O)[C@@H](O)[C@@H]2O)[C@H](O)[C@@H](O)[C@H]1O` [raffinose], the “inhibition of sucrose uptake” value at Srt1 is recorded as “raffinose was the only alternative compound that caused a minor inhibition of sucrose uptake”.
